Reference: paper PMC7591920 (Nature Communications, 2020)
Bridge positions count the residues as written; N and C are the ends. Square brackets hold non-standard residues; d marks the D form. Primed or numbered codes have the meaning given here. Ends that are not written are not given here. * marks the point of attachment. FITC = O=C1OC2(c3ccc(O)cc3Oc3cc(O)ccc32)c2ccc(NC(=S)*)cc21; PEG2′ = not defined here; Peg = not defined here; AEEA = NCCOCCOCC(=O)O

B1: FITC-labelled VGL4(203-256) (peptide)
peptide: DPVVEEHFRRSLGKNYKEPEPAPNSVSITGSVDDHFAKALGDTWLQIKAAKDSA
modifications: also: FITC label, place not given here
notes: numbers count on: mouse VGL4 as in PDB 4LN0; also called FITC-VGL4
B2: VGL4(203–256), full-length VGL4-derived TEAD binding sequence (peptide 1) (peptide, UniProt Q80V24 203-256, looked up)
peptide: B1 peptide
notes: mouse and human VGL4 are said to be identical in this stretch; Made on Rink amide resin, so probably a C-terminal amide; source: synthetic peptide (Fmoc solid-phase synthesis, RP-HPLC purified)
B3: peptide 7, acetylated (Tat-PEG2-4E) (peptide)
peptide: Ac-GRKKRRQRRRPQ[AEEA]SVEDHFAKALGDTWLQIKAA-NH2
modifications: lactam 16-31; not fully specified (some residues)
notes: cell-penetrating Tat peptide; macrocyclic VGL4 two-helix motif 4E; numbers count on: mouse VGL4 as in PDB 4LN0; The two parts are joined by a PEG2 unit that is no amino acid; Rink amide resin: C-terminal amide surmised; source: synthetic peptide
B4: peptide 4E(open), acetylated (peptide)
peptide: Ac-SVEDHFAKALGDTWLQIKAA
notes: VGL4 two-helix motif with E at 235, not cyclised; numbers count on: mouse VGL4 as in PDB 4LN0; Synthesised on Rink amide resin: C-terminal amide surmised; also called linear version of 4E; source: synthetic peptide
B5: peptide 25 (alanine scan of 4E), acetylated (peptide)
peptide: Ac-SVEDHFAKALGDTWLAIKAA
modifications: lactam 3-18
notes: macrocyclic VGL4 two-helix motif 4E with one alanine; numbers count on: mouse VGL4 as in PDB 4LN0; Synthesised on Rink amide resin: C-terminal amide surmised; source: synthetic peptide
B6: peptide 19 (alanine scan of 4E), acetylated (peptide)
peptide: Ac-SVEDHFAAALGDTWLQIKAA
modifications: lactam 3-18
notes: as for B5
B7: peptide 14 (alanine scan of 4E), acetylated (peptide)
peptide: Ac-AVEDHFAKALGDTWLQIKAA
modifications: lactam 3-18
notes: as for B5
B8: peptide 20 (alanine scan of 4E), acetylated (peptide)
peptide: Ac-SVEDHFAKAAGDTWLQIKAA
modifications: lactam 3-18
notes: as for B5
B9: peptide 26 (alanine scan of 4E), acetylated (peptide)
peptide: Ac-SVEDHFAKALGDTWLQAKAA
modifications: lactam 3-18
notes: as for B5
B10: peptide 4, acetylated (two-helix motif of VGL4) (peptide)
peptide: Ac-SVDDHFAKALGDTWLQIKAA
notes: VGL4 two-helix motif (helices alpha2/alpha3); Synthesised on Rink amide resin: C-terminal amide surmised; source: synthetic peptide
B11: peptide 15 (alanine scan of 4E), acetylated (peptide)
peptide: Ac-SAEDHFAKALGDTWLQIKAA
modifications: lactam 3-18
notes: as for B5
B12: peptide 18 (alanine scan of 4E), acetylated (peptide)
peptide: Ac-SVEDHAAKALGDTWLQIKAA
modifications: lactam 3-18
notes: as for B5
B13: peptide 24 (alanine scan of 4E), acetylated (peptide)
peptide: Ac-SVEDHFAKALGDTWAQIKAA
modifications: lactam 3-18
notes: as for B5
B14: peptide 22 (alanine scan of 4E), acetylated (peptide)
peptide: Ac-SVEDHFAKALGDAWLQIKAA
modifications: lactam 3-18
notes: as for B5
B15: peptide 16 (alanine scan of 4E), acetylated (peptide)
peptide: Ac-SVEAHFAKALGDTWLQIKAA
modifications: lactam 3-18
notes: as for B5
B16: peptide 21 (alanine scan of 4E), acetylated (peptide)
peptide: Ac-SVEDHFAKALGATWLQIKAA
modifications: lactam 3-18
notes: as for B5
B17: peptide 17 (alanine scan of 4E), acetylated (peptide)
peptide: Ac-SVEDAFAKALGDTWLQIKAA
modifications: lactam 3-18
notes: as for B5
B18: peptide 23 (alanine scan of 4E), acetylated (peptide)
peptide: Ac-SVEDHFAKALGDTALQIKAA
modifications: lactam 3-18
notes: as for B5
B19: VGL4(203-256), acetylated (peptide 1) (peptide)
peptide: Ac-DPVVEEHFRRSLGKNYKEPEPAPNSVSITGSVDDHFAKALGDTWLQIKAAKDSA
notes: numbers count on: mouse VGL4 as in PDB 4LN0; Synthesised on Rink amide resin: C-terminal amide surmised (masses fit); also called hVGL4(203-256); source: synthetic peptide
B20: YAP(50-100) (peptide, UniProt P46937 50-100, looked up)
peptide: AGHQIVHVRGDSETDLEALFNAVMNPKTANVPQTVPMRLRKLPDSFFKPPE
notes: yes-associated protein YAP, residues 50-100
B21: FITC-labelled peptide 7 (Tat-PEG2-4E) (peptide)
peptide: GRKKRRQRRRPQ[PEG2′]SVEDHFAKALGDTWLQIKAA
modifications: not fully specified (some residues); also: FITC label, place not given here
notes: also called 7 (FITC-Peg); source: synthetic peptide
B22: FITC-labelled peptide 4E (peptide)
peptide: {FITC-Peg}-SVEDHFAKALGDTWLQIKAA
modifications: lactam 3-18; reading uncertain
notes: macrocyclic VGL4 two-helix motif 4E; numbers count on: mouse VGL4 as in PDB 4LN0; Rink amide resin: C-terminal amide surmised; also called 4E (FITC-Peg); source: synthetic peptide

Assays:
Conditions in all cases: both partners purified
GST-hTEAD1(209-426) [1] = biological target: T1, GST-hTEAD1(209-426) (human, UniProt P28347 209-426); experiment: fluorescence polarisation; direct: FITC-labelled peptide (10 nM) titrated with hTEAD1 or mTEAD4; 10 mM HEPES, 150 mM NaCl, 0.1% Tween-20, pH 7.4; read after 1 h
T1 construct: A 3C protease site stands between tags and protein; also called human TEAD1; source: E. coli BL21 DE3 RIL, purified (His Trap, SEC); not shown: GST, N-terminal, kept

mouse TEAD4(210-427) [2] = biological target: T2, mouse TEAD4(210-427) (mouse, UniProt Q62296 210-427); experiment: as above
T2 construct: mouse TEAD4, residues 210-427; The tag was cleaved with 3C protease only for the crystallisation; nothing is said for SPR and FP; also called mTEAD4; source: E. coli BL21 DE3 RIL, purified (His Trap, SEC)

[3] = biological target: T3, mouse TEAD4(210–427), as purified (SPR) (mouse, UniProt Q62296 210-427); experiment: SPR; GST-hTEAD1 and mTEAD4 covalently tethered (NHS/EDC) on CM5 chips, 2000–3000 RU; peptides as analytes, threefold dilutions, typically 30 µM top concentration; 10 mM HEPES, 150 mM NaCl, 0.05% Tween-20, pH 7.4, 0.3% DMSO, 20 °C; steady-state fit, 1:1 model
T3 construct: cDNA fused with a 6x His-tag and a 3C protease cleavage site in pOPIN S; No tag cleavage is told for the protein used in SPR; cleavage is told only for the crystallised complex; also called mTEAD4; source: E. coli BL21 DE3 RIL, purified (His Trap, SEC)

GST-hTEAD1(209-426) [4] = biological target: T1, GST-hTEAD1(209-426); experiment: SPR; GST-hTEAD1 or mTEAD4 amine-coupled to a CM5 chip (10 mM MES pH 6.4), peptides as analytes; 10 mM HEPES, 150 mM NaCl, 0.05% Tween-20, pH 7.4, 20 °C, 30 µL/min; steady-state fit, 1:1 model
mouse TEAD4(210-427) [5] = biological target: T2, mouse TEAD4(210-427); experiment: as above
GST-hTEAD1(209-426) [6] = biological target: T1, GST-hTEAD1(209-426); experiment: as above; remark: listed apart in the source
mouse TEAD4(210-427) [7] = biological target: T2, mouse TEAD4(210-427); experiment: as above; remark: listed apart in the source
mouse TEAD4(210-427) [8] = biological target: T2, mouse TEAD4(210-427); experiment: fluorescence polarisation; competition: acetylated peptide titrated (50 µM-6 pM) against mTEAD4 (400 nM) with a FITC-labelled tracer peptide (10 nM; tracer not named); read after 1 h
GST-hTEAD1(209-426) [9] = biological target: T1, GST-hTEAD1(209-426); experiment: SPR; GST-hTEAD1 or mTEAD4 amine-coupled to a CM5 chip (10 mM MES pH 6.4), peptides as analytes; 10 mM HEPES, 150 mM NaCl, 0.05% Tween-20, pH 7.4, 20 °C, 30 µL/min; steady-state fit, 1:1 model; remark: listed apart in the source
mouse TEAD4(210-427) [10] = biological target: T2, mouse TEAD4(210-427); experiment: as above; remark: listed apart in the source
GST-hTEAD1(209-426) [11] = biological target: T1, GST-hTEAD1(209-426); experiment: as above; remark: listed apart in the source
mouse TEAD4(210-427) [12] = biological target: T2, mouse TEAD4(210-427); experiment: as above; remark: listed apart in the source
GST-hTEAD1(209-426) [13] = biological target: T1, GST-hTEAD1(209-426); experiment: as above; remark: listed apart in the source
mouse TEAD4(210-427) [14] = biological target: T2, mouse TEAD4(210-427); experiment: as above; remark: listed apart in the source
mouse TEAD4(210-427) [15] = biological target: T2, mouse TEAD4(210-427); experiment: as above; remark: listed apart in the source
GST-hTEAD1(209-426) [16] = biological target: T1, GST-hTEAD1(209-426); experiment: fluorescence polarisation; direct: FITC-labelled peptide (10 nM) titrated with hTEAD1 or mTEAD4; 10 mM HEPES, 150 mM NaCl, 0.1% Tween-20, pH 7.4; read after 1 h; remark: listed apart in the source
mouse TEAD4(210-427) [17] = biological target: T2, mouse TEAD4(210-427); experiment: as above; remark: listed apart in the source

T2 sequence (Q62296 210-427): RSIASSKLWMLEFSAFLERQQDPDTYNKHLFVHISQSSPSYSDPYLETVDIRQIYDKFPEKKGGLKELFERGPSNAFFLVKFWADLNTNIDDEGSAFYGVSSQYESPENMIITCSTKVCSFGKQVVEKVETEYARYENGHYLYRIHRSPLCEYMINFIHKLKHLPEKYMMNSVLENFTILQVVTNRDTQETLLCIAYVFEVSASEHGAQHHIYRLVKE
T1 sequence (P28347 209-426): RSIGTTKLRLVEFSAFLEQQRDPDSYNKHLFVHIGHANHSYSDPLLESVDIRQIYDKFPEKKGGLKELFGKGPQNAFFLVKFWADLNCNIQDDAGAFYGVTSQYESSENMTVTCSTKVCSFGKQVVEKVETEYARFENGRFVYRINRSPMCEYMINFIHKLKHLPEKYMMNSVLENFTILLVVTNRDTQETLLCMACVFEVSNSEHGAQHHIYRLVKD
T3 sequence (Q62296 210-427): as the sequence (Q62296 210-427) above

Row | Binder | IC50 (mouse TEAD4(210-427) [8]) | Kd (GST-hTEAD1(209-426) [9]) | Kd (mouse TEAD4(210-427) [10]) | further results
1 | B1 |  |  |  | Kd (GST-hTEAD1(209-426) [1]): 17 ± 2.5 nM; Kd (mouse TEAD4(210-427) [2]): 9.2 ± 0.6 nM
2 | B2 |  |  |  | Kd [3]: 2000 nM
3 | B3 |  |  |  | Kd (GST-hTEAD1(209-426) [4]): 830 ± 780 nM; Kd (mouse TEAD4(210-427) [5]): 1500 ± 1000 nM
4 | B4 |  |  |  | Kd (GST-hTEAD1(209-426) [6]): 3.1 µM; Kd (mouse TEAD4(210-427) [7]): 2400 nM
5 | B5 | 60 ± 10 nM | 750 ± 120 nM | 1300 ± 110 nM | 
6 | B6 | 280 ± 90 nM | 1700 ± 10 nM | 2800 ± 60 nM | 
7 | B7 | 6100 ± 4300 nM | 1500 ± 20 nM | 2700 ± 250 nM | 
8 | B8 | > 100000 nM | > 100000 nM | > 100000 nM | 
9 | B9 | 7400 ± 6100 nM | 2700 ± 1070 nM | 4400 ± 1350 nM | 
10 | B10 |  |  |  | Kd (GST-hTEAD1(209-426) [11]): 830 ± 780 nM; Kd (mouse TEAD4(210-427) [12]): 1500 ± 1000 nM
11 | B11 | 2100 ± 560 nM | 1000 ± 370 nM | 1500 ± 370 nM | 
12 | B12 | > 50000 nM | > 100000 nM | > 100000 nM | 
13 | B13 | 100 ± 10 nM | 1100 ± 60 nM | 2000 ± 140 nM | 
14 | B14 |  | 91000 ± 14000 nM |  | 
15 | B15 | 3000 ± 760 nM | 740 ± 460 nM | 1600 ± 690 nM | 
16 | B16 | > 100000 nM | > 100000 nM | > 100000 nM | 
17 | B17 | > 100000 nM | > 100000 nM | > 100000 nM | 
18 | B18 |  | 7800 ± 150 nM |  | 
19 | B19 |  |  |  | Kd (GST-hTEAD1(209-426) [13]): 4.3 µM; Kd (mouse TEAD4(210-427) [14]): 3.1 µM
20 | B20 |  |  |  | Kd (mouse TEAD4(210-427) [15]): 700 nM
21 | B21 |  |  |  | Kd (GST-hTEAD1(209-426) [16]): 147 ± 70 nM; Kd (mouse TEAD4(210-427) [17]): 51 ± 5 nM
22 | B22 |  |  |  | Kd (GST-hTEAD1(209-426) [16]): 168 ± 37 nM; Kd (mouse TEAD4(210-427) [17]): 32 ± 5 nM
